One variant from publication PMC9478642 can be followed below.

The chains are these.
B1: human T-plastin, full length, wild type [human] / F-actin (filaments of α-actin) [not stated] (parent)
chain 1: MDEMATTQISKDELDELKEAFAKVDLNSNGFICDYELHELFKEANMPLPGYKVREIIQKLMLDGDRNKDGKISFDEFVYIFQEVKSSDIAKTFRKAINRKEGICALGGTSELSSEGTQHSYSEEEKYAFVNWINKALENDPDCRHVIPMNPNTDDLFKAVGDGIVLCKMINLSVPDTIDERAINKKKLTPFIIQENLNLALNSASAIGCHVVNIGAEDLRAGKPHLVLGLLWQIIKIGLFADIELSRNEALAALLRDGETLEELMKLSPEELLLRWANFHLENSGWQKINNFSADIKDSKAYFHLLNQIAPKGQKEGEPRIDINMSGFNETDDLKRAESMLQQADKLGCRQFVTPADVVSGNPKLNLAFVANLFNKYPALTKPENQDIDWTLLEGETREERTFRNWMNSLGVNPHVNHLYADLQDALVILQLYERIKVPVDWSKVNKPPYPKLGANMKKLENCNYAVELGKHPAKFSLVGIGGQDLNDGNQTLTLALVWQLMRRYTLNVLEDLGDGQKANDDIIVNWVNRTLSEAGKSTSIQSFKDKTISSSLAVVDLIDAIQPGCINYDLVKSGNLTEDDKHNNAKYAVSMARRIGARVYALPEDLVEVKPKMVMTVFACLMGRGMKRV
chain 2: not shown

Variants of B1 are the subject of one test. Description: sequential low-speed/high-speed F-actin cosedimentation assay. Conditions: with F-actin (filaments of α-actin); 5 μM actin, 2 μM plastin; read off a plot; scale: proportion of T-plastin in low-speed pellet.
On to chain 1 F191A, for which the response was 0.04.

The test is the same for the next values; noted with them: with F-actin (filaments of α-actin); 5 μM actin, 2 μM plastin; read off a plot; scale: proportion of T-plastin in low-speed plus high-speed pellet.
Regarding chain 1 F191A, the response was 0.42.
